These are literature values, as cited in patent US9700485B2, “Delamination resistant pharmaceutical glass containers containing active pharmaceutical ingredients” (Corning Incorporated, priority 2013, dated 2017).

The conditions of data set [1]: pre and post lyophilized, 0.1 mg/mL; cited from earlier work.
For data set [2] the following is noted: cited from earlier work; for particulate counts =10 μm/mL / particulate counts =25 μm/mL / particulate counts =50 μm/mL: HIAC.
For data set [3] the following is noted: lyophilized, 4° C., 40° C. and 50° C. up to 4 months; cited from earlier work.
The conditions of data set [4]: cited from earlier work.
For data set [5] the following is noted: 300 RPM, room temperature, 72 hours; cited from earlier work.
Setting [6] is: After Lyophilization, reconstituted to 5 mg/mL.
[7] abbreviates: Before Lyophilization, diluted to 5 mg/mL.

Read-outs that look alike come from different tables or passages of the source.

Consider “IMC-A12: fully human IgG1/λ monoclonal antibody binding insulin-like growth factor-I receptor (IGF-IR)”, for which the “secondary structure (circular dichorism)” value in data set [1] is “Secondary structure of IMC-A12 was not altered because of lyophilization”. Besides, in data set [2] (setting [6]), the “particulate counts =10 μm/mL” value is 38.67 mL⁻¹, the “particulate counts =25 μm/mL” value is 0.33 mL⁻¹ and the “particulate counts =50 μm/mL” value is 0.00 mL⁻¹. In data set [2] (setting [7]), the “particulate counts =10 μm/mL” value was 26.33 mL⁻¹, the “particulate counts =25 μm/mL” value is 1.67 mL⁻¹ and the “particulate counts =50 μm/mL” value is 0.00 mL⁻¹. The “particulate counts (HIAC)” value in data set [2] (before and after lyophilization, 5 mg/mL) was “The particulate counts did not changed significantly”. Also, the “rate of monomer change” value in data set [3] was “smallest at lowest IMC-A12 concentration and at highest trehalose to IMC-A12 ratio”. Besides, the percent monomer entry in data set [4] (−20° C. and −70° C. up to 3 months, PBS and Citrate formulations) is given as “The percent monomer did not change with time in either formulation”. Further, the “percent monomer as a function of pH” value in data set [4] (−20° C. and −70° C., three weeks) was “The pH did not have significant effect on percent monomer”. The “percent loss and percent monomer as a function of pH” value in data set [5] is “Percent loss was least and percent monomer was highest between pH 6.0-7.0”.
